Reference: article PMC12478261

T1: mCRP (monomeric C-reactive protein) (UniProt P02741 19-224)
T1 sequence: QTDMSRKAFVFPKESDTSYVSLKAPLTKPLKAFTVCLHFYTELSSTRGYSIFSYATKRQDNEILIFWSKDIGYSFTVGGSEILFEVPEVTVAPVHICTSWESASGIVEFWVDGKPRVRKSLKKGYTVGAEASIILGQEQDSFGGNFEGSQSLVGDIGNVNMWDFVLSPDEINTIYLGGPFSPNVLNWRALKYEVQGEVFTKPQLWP

T2: nCRP (native pentameric C-reactive protein) (UniProt P02741 19-224)
T2 sequence: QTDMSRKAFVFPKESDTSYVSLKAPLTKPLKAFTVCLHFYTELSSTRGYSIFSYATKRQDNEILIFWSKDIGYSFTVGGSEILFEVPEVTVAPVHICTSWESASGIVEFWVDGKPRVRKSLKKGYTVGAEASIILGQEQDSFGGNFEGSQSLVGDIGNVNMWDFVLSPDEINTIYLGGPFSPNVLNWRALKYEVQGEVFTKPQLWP


Experiments:
[1] = target: T1, mCRP (monomeric C-reactive protein); experiment: SPR
[2] = target: T2, nCRP (native pentameric C-reactive …); experiment: bead pull-down, Qubit ssDNA quantification

Row | Binder | Kd [1] [nM] | binding result [2]
1 | CCAATGGCCCTAGGGCTGCAAATCGCTGCC (ssDNA) [ApmCRP3] | 400 | –
2 | TTGACCCTTTAAGGTCGTCCGGAAACGGGC (ssDNA) [ApmCRP4] | – | no binding
